T1: rat pIgR extracellular domain (rat, UniProt P15083 19-643)
T1 construct: extracellular domain
T1 sequence (looked up): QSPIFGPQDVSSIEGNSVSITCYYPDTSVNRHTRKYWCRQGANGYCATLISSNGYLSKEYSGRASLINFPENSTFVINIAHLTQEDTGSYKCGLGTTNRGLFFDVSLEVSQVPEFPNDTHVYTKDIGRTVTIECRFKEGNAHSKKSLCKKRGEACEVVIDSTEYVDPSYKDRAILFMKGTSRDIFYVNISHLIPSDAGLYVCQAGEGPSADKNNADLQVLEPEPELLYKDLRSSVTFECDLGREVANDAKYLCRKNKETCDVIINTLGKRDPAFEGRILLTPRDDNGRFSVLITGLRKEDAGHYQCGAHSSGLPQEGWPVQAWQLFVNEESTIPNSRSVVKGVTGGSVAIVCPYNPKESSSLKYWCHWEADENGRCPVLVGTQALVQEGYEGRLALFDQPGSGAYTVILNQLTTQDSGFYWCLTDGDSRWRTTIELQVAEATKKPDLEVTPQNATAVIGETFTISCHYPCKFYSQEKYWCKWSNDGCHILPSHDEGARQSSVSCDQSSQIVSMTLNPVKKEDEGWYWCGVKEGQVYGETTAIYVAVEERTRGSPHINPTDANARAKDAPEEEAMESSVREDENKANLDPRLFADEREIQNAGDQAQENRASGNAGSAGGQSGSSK

T2: mouse pIgR extracellular domain (ECD) (mouse, UniProt O70570 19-645)
T2 construct: Bought from R&D Systems (Cat 2800-PG-050); also called mpIgR ECD
T2 sequence: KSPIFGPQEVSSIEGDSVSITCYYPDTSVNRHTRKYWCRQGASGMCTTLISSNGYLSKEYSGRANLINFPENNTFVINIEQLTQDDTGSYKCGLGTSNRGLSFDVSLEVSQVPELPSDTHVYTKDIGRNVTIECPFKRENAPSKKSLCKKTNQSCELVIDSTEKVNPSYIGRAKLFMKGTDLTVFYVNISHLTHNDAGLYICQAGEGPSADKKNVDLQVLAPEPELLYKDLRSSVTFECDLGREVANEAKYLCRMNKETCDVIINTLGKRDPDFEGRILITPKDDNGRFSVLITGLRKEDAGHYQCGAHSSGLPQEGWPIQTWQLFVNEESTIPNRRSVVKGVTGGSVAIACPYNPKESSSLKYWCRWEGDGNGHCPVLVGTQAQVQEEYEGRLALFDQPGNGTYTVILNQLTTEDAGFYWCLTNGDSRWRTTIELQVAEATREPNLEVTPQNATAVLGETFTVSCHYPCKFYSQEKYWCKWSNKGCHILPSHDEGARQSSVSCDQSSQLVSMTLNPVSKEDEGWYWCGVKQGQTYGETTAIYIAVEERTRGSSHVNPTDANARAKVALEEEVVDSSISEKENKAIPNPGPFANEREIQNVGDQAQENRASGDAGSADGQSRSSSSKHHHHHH


Key:
Assay in all cases: SPR, VHH captured by anti-Fc, ECD analyte
[1] = target: T3, cynomolgus monkey pIgR extracellular domain (cynomolgus monkey, UniProt A0A2K5WMU9 19-638)
T3 construct: extracellular domain
Summary of the method: (§1)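 Single-cycle kinetics: ECD analyte from 30 nM, 3-fold series, low to high, with 30 min off-rate monitoring, over VHH captured at 0.5 ug/ml (~200-300 RU). HBSP plus 100 ug/ml BSA at 30 μL/min. Reference cell and buffer blank subtracted; global 1:1 Langmuir fit gave kon, koff, KD.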

[2] = target: T4, human pIgR extracellular domain (ECD) (human, UniProt P01833 19-638)
T4 construct: Bought from R&D Systems (Cat 2717-PG-050); also called hpIgR ECD
Summary of the method: as §1

[3] = target: T1, rat pIgR extracellular domain
Summary of the method: as §1

[4] = target: T2, mouse pIgR extracellular domain (ECD)
Summary of the method: as §1

T3 sequence (A0A2K5WMU9 entry or part of it): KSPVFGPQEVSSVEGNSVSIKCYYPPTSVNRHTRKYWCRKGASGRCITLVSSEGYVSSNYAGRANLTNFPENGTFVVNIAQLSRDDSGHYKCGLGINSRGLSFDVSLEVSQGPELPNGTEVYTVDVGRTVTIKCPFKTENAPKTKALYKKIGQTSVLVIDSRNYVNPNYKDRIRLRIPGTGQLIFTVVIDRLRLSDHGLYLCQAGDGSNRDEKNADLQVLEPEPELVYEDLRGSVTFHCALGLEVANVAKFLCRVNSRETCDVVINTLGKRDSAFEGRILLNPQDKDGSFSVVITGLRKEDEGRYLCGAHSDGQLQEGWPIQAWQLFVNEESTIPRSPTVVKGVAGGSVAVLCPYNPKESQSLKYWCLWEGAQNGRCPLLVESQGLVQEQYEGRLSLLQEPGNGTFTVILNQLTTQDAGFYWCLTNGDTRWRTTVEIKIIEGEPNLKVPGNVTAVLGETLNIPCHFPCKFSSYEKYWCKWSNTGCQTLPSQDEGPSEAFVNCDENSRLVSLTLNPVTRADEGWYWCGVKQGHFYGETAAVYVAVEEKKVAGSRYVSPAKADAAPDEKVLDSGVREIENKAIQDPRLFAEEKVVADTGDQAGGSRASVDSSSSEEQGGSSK
T4 sequence (P01833 other isoform, or with tags, fused parts or gaps): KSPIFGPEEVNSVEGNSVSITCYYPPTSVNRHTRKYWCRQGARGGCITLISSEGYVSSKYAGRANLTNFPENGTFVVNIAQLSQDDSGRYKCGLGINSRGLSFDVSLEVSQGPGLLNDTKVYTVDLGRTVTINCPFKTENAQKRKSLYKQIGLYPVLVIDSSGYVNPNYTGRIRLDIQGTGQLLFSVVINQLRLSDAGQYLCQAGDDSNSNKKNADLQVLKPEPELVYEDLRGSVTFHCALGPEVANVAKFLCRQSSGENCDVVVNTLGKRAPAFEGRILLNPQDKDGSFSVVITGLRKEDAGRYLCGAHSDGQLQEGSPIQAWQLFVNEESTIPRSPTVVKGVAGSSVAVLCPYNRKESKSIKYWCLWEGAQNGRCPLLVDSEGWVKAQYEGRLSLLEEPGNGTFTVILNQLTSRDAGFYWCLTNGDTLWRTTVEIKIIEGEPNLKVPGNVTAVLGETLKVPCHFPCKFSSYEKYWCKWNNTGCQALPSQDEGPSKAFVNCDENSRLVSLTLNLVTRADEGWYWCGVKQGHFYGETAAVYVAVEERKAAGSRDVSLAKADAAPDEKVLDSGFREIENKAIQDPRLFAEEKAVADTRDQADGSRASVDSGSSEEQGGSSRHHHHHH

Row | Binder | Kd [1] | Kd [2] | Kd [3] | Kd [4]
1 | 03D12R3 VHH Mono-Fc (Fc fusion) QVQLVESGGGLVQAGGSLRLSCAASGRTFSSYAMGWFRQAPGKEREFAAVITWNGGSTHYADSVKGRFTISRDNAKNTVYLQMNSLKPEDTAVYYCAADPMNSPYWGQGTQVTVSSSPAPELLGGPSVFLFPPKPKDTLMISRTPEVTCVVVDVSHEDPEVKFNWYVDGVEVHNAKTKPREEQYNSTYRVVSVLTVLHQDWLNGKEYKCKVSNKALPAPIEKTISKAKGQPREPQVYTKPPSREEMTKNQVSLSCLVKGFYPSDIAVEWESNGQPENNYKTTVPVLDSDGSFRLASYLTVDKSRWQQGNVFSCSVMHEALHNHYTQKSLSLSPGK | 0.905 nM | 0.606 nM |  | 
2 | 02G06R3 VHH Mono-Fc (Fc fusion) EVQLVESGGGLVQAGGSLRLSCAASGRTFDSYAMGWFRQAPGKEREFVAAISWTGGSTDYADSVKGRFTISRDNAKNTVYLQMDSLKPEDTAVYYCAAEVVGRDVTTMYRVSGLEYEYDYWGQGTQVTVSSSPAPELLGGPSVFLFPPKPKDTLMISRTPEVTCVVVDVSHEDPEVKFNWYVDGVEVHNAKTKPREEQYNSTYRVVSVLTVLHQDWLNGKEYKCKVSNKALPAPIEKTISKAKGQPREPQVYTKPPSREEMTKNQVSLSCLVKGFYPSDIAVEWESNGQPENNYKTTVPVLDSDGSFRLASYLTVDKSRWQQGNVFSCSVMHEALHNHYTQKSLSLSPGK |  |  | 73.5 nM | 32.3 nM
3 | 01E10R2 VHH Mono-Fc (Fc fusion) EVQLVESGGGLVQAGGSLRLSCAASGRTLSVDRMGWFRQVPGKEREFIAARTWSGSSTYIYYADSVKGRFAISRDRAKNTIDLQMNSLKLEDTGAYYCAADVRGGSYDVRRDEGYAYWGQGTLVTVSSSPAPELLGGPSVFLFPPKPKDTLMISRTPEVTCVVVDVSHEDPEVKFNWYVDGVEVHNAKTKPREEQYNSTYRVVSVLTVLHQDWLNGKEYKCKVSNKALPAPIEKTISKAKGQPREPQVYTKPPSREEMTKNQVSLSCLVKGFYPSDIAVEWESNGQPENNYKTTVPVLDSDGSFRLASYLTVDKSRWQQGNVFSCSVMHEALHNHYTQKSLSLSPGK |  |  | 96.9 nM | 61.8 nM
4 | 03G07R3 VHH Mono-Fc (Fc fusion) EVQLVESGGGLVQAGDSLRLSCAASGRTLSFDTYAMAWFRQAPGKEREFVASIDYNGGSTDYADSVKGRFTVTRDNAKNTVTLRMNSLKPDDTAVYYCASARYYRSGTSFPVNYWGQGTQVTVSSSPAPELLGGPSVFLFPPKPKDTLMISRTPEVTCVVVDVSHEDPEVKFNWYVDGVEVHNAKTKPREEQYNSTYRVVSVLTVLHQDWLNGKEYKCKVSNKALPAPIEKTISKAKGQPREPQVYTKPPSREEMTKNQVSLSCLVKGFYPSDIAVEWESNGQPENNYKTTVPVLDSDGSFRLASYLTVDKSRWQQGNVFSCSVMHEALHNHYTQKSLSLSPGK | 361 nM | 2.63 nM |  | 5.58 nM
5 | 01H04R3 VHH Mono-Fc (Fc fusion) EVQLVESGGGLVQPGGSLRLSCAASGRTFSSLTMAWFRRAPGKEREFVAAQKWAGATTYTYYGDSVKGRFTISRDNAKDTVYLQMNSLKPVDTAIYYCAADTSSIVGDPRSPNRYDYWGQGTQVTVSSSPAPELLGGPSVFLFPPKPKDTLMISRTPEVTCVVVDVSHEDPEVKFNWYVDGVEVHNAKTKPREEQYNSTYRVVSVLTVLHQDWLNGKEYKCKVSNKALPAPIEKTISKAKGQPREPQVYTKPPSREEMTKNQVSLSCLVKGFYPSDIAVEWESNGQPENNYKTTVPVLDSDGSFRLASYLTVDKSRWQQGNVFSCSVMHEALHNHYTQKSLSLSPGK |  |  | 88.2 nM | 101 nM
6 | 01G02R2LS VHH Mono-Fc (Fc fusion) QVQLVESGGGLVQAGDSLALSCAGSGDTFSNYAMGWFRQAPGKEREFVADISWYGANIGYADSVKGRFTISRDNAKNMVTLRMNSLKPEDTAVYYCAADRNHWPVKGDYWGQGTQVTVSSSPAPELLGGPSVFLFPPKPKDTLMISRTPEVTCVVVDVSHEDPEVKFNWYVDGVEVHNAKTKPREEQYNSTYRVVSVLTVLHQDWLNGKEYKCKVSNKALPAPIEKTISKAKGQPREPQVYTKPPSREEMTKNQVSLSCLVKGFYPSDIAVEWESNGQPENNYKTTVPVLDSDGSFRLASYLTVDKSRWQQGNVFSCSVMHEALHNHYTQKSLSLSPGK |  |  |  | 23.3 nM
7 | 01B11R3LS VHH Mono-Fc (Fc fusion) EVQLVESGGGVVQAEDSLRLSCAAPGLPFSSSRMGWFRQAPGKEREFVAAIGWSGRSTYRYYGDSVKGRFTVSGDNAKNTLDLQMKGLKPEDTAVYYCAADPDYYGDYRTSGAWRYWGQGTQVTVSSSPAPELLGGPSVFLFPPKPKDTLMISRTPEVTCVVVDVSHEDPEVKFNWYVDGVEVHNAKTKPREEQYNSTYRVVSVLTVLHQDWLNGKEYKCKVSNKALPAPIEKTISKAKGQPREPQVYTKPPSREEMTKNQVSLSCLVKGFYPSDIAVEWESNGQPENNYKTTVPVLDSDGSFRLASYLTVDKSRWQQGNVFSCSVMHEALHNHYTQKSLSLSPGK |  |  | 19.9 nM | 12.8 nM
8 | 01H02R3LS VHH Mono-Fc (Fc fusion) QVQLVESGGGLVQPGGSLRLSCAASGSIFSASVMGWYRQGPGKQREFVARISPGGVTHYADSVKGRFTISKDNAKNTVTLQMNSLKPEDTAVYYCNADRFGFEVYWGQGTLVTVSSSPAPELLGGPSVFLFPPKPKDTLMISRTPEVTCVVVDVSHEDPEVKFNWYVDGVEVHNAKTKPREEQYNSTYRVVSVLTVLHQDWLNGKEYKCKVSNKALPAPIEKTISKAKGQPREPQVYTKPPSREEMTKNQVSLSCLVKGFYPSDIAVEWESNGQPENNYKTTVPVLDSDGSFRLASYLTVDKSRWQQGNVFSCSVMHEALHNHYTQKSLSLSPGK | 20.6 nM | 3.24 nM |  | 
9 | 01F04R3LS VHH Mono-Fc (Fc fusion) EVQLVESGGGLVQAGGSLRLSCAASGRTFSRYAMGWFRQAPGKEREFVAAIAWSGGAIYYADFVKGQFTISRDNAKNTVDLEMNRLKPEDTAVYYCGSTRDPRVGDKKFYDYWGQGTQVTVSSSPAPELLGGPSVFLFPPKPKDTLMISRTPEVTCVVVDVSHEDPEVKFNWYVDGVEVHNAKTKPREEQYNSTYRVVSVLTVLHQDWLNGKEYKCKVSNKALPAPIEKTISKAKGQPREPQVYTKPPSREEMTKNQVSLSCLVKGFYPSDIAVEWESNGQPENNYKTTVPVLDSDGSFRLASYLTVDKSRWQQGNVFSCSVMHEALHNHYTQKSLSLSPGK | 236 nM | 23.8 nM |  | 
10 | 02D07R3 VHH Mono-Fc (Fc fusion) EVQLVESGGGLVQPGGQLRLSCAASGSIASIRDMAWYRQAPGKQRELVAIFARGGTTHYADSVKGRFTISRDNAKNTVYLQVNSLEPEDTAAYYCNAEVATMFQPGFRDYWGRGTQVTVSSSPAPELLGGPSVFLFPPKPKDTLMISRTPEVTCVVVDVSHEDPEVKFNWYVDGVEVHNAKTKPREEQYNSTYRVVSVLTVLHQDWLNGKEYKCKVSNKALPAPIEKTISKAKGQPREPQVYTKPPSREEMTKNQVSLSCLVKGFYPSDIAVEWESNGQPENNYKTTVPVLDSDGSFRLASYLTVDKSRWQQGNVFSCSVMHEALHNHYTQKSLSLSPGK |  |  | 2.37 nM | 4.38 nM
11 | 01C01R2LS VHH Mono-Fc (Fc fusion) QVQLVESGGGLQQAGGSLRLSCAASGRTVTVMTVGWFRQAPGKEREFVAAITMYGERTYYADSVKGRFTISRDNAKNTVDLQMNSLKPEDAAVYYCAARTYVSGIYDRFDDYNYWGQGTQVTVSSSPAPELLGGPSVFLFPPKPKDTLMISRTPEVTCVVVDVSHEDPEVKFNWYVDGVEVHNAKTKPREEQYNSTYRVVSVLTVLHQDWLNGKEYKCKVSNKALPAPIEKTISKAKGQPREPQVYTKPPSREEMTKNQVSLSCLVKGFYPSDIAVEWESNGQPENNYKTTVPVLDSDGSFRLASYLTVDKSRWQQGNVFSCSVMHEALHNHYTQKSLSLSPGK |  |  |  | 11.3 nM

— US20220112276A1 (Janssen / Centocor, published 2022)
